In patent publication US20240116985A1 (published 2024):
Starred links: 1 amine or outer side, 2 acyl side, 3 side chain; linkers in the order of their positions; H or OH if unused. Positions of bridges follow the written chain, without caps; N, C: chain ends. Non-standard residues stand in square brackets, D forms with d. Primed or numbered codes have the meaning given here. B5(10) = 2-amino-2-(pent-4-en-1-yl)hept-6-enoic acid, bis(4-pentenyl)glycine, stitching residue bearing both staples, C=CCCCC(CCCC=C)(N[*:1])C(=O)[*:2]; B5(4) = 2,2-bis(4-pentenyl)glycine = 2-amino-2-(pent-4-en-1-yl)hept-6-enoic acid (stitching residue), C=CCCCC(CCCC=C)(N[*:1])C(=O)[*:2]; B5(5) = 2,2-bis(4-pentenyl)glycine, 2-amino-2-(pent-4-en-1-yl)hept-6-enoic acid (stitching residue), C=CCCCC(CCCC=C)(N[*:1])C(=O)[*:2]; PyrS(3) = (S)-1-((allyloxy)carbonyl)-3-aminopyrrolidine-3-carboxylic acid, stapling residue, C=CCOC(=O)N1CC[C@@](N[*:1])(C(=O)[*:2])C1; B5(33) = 2-amino-2-(pent-4-en-1-yl)hept-6-enoic acid (bis-pentenylglycine, two olefin side chains), C=CCCCC(CCCC=C)(N[*:1])C(=O)[*:2]; PyrS″ = (S)-1-((allyloxy)carbonyl)-3-aminopyrrolidine-3-carboxylic acid (stapling residue), C=CCOC(=O)N1CC[C@@](N[*:1])(C(=O)[*:2])C1; SeN = (S)-5-(((allyloxy)carbonyl)(methyl)amino)-2-amino-2-methylpentanoic acid, C=CCOC(=O)N(C)CCC[C@](C)(N[*:1])C(=O)[*:2]; PyrS = (S)-1-((allyloxy)carbonyl)-3-aminopyrrolidine-3-carboxylic acid, C=CCOC(=O)N1CC[C@@](N[*:1])(C(=O)[*:2])C1; B5(3) = 2,2-bis(4-pentenyl)glycine (stitching residue), C=CCCCC(CCCC=C)(N[*:1])C(=O)[*:2]; B5 = 2-amino-2-(pent-4-en-1-yl)hept-6-enoic acid, C=CCCCC(CCCC=C)(N[*:1])C(=O)[*:2]; Phe(3-CF3) = N[C@@H](Cc1cccc(C(F)(F)F)c1)C(=O)O; Phe(4-CF3) = N[C@@H](Cc1ccc(C(F)(F)F)cc1)C(=O)O; Phe(F5) = N[C@@H](Cc1c(F)c(F)c(F)c(F)c1F)C(=O)O; Phe(3-CONH2) = NC(=O)c1cccc(C[C@H](N)C(=O)O)c1; Phe(4-COOH) = N[C@@H](Cc1ccc(C(=O)O)cc1)C(=O)O; Phe(2-CONH2) = NC(=O)c1ccccc1C[C@H](N)C(=O)O; Phe(3-OMe) = COc1cccc(C[C@H](N)C(=O)O)c1; 1Nal = N[C@@H](Cc1cccc2ccccc12)C(=O)O; 2Nal = N[C@@H](Cc1ccc2ccccc2c1)C(=O)O; hTyr = N[C@@H](CCc1ccc(O)cc1)C(=O)O; αAllylPro = C=CC[C@@]1(C(=O)O)CCCN1; d(αMeL) = CC(C)C[C@@](C)(N)C(=O)O; hPhe = N[C@@H](CCc1ccccc1)C(=O)O; 4Pal = N[C@@H](Cc1ccncc1)C(=O)O; R8 = C=CCCCCCC[C@@](C)(N)C(=O)O; S8 = C=CCCCCCC[C@](C)(N)C(=O)O

B1: I-109 (peptide)
peptide: Ac-FDA[R8]DDAA[Phe(3-CONH2)]V[PyrS″]FWQ-NH2
modifications: staple 4-11; not fully specified; printed as Ac-Phe-Asp-Ala-R8-Asp-Asp-Ala-Ala-3CBMF-Val-PyrS-Phe-Trp-Gln-NH2
notes: Stapled peptide composition
B2: I-105 (peptide)
peptide: Ac-FDA[R8]DDAAFV[PyrS″][Phe(2-CONH2)]WQ-NH2
modifications: staple 4-11; not fully specified; printed as Ac-Phe-Asp-Ala-R8-Asp-Asp-Ala-Ala-Phe-Val-PyrS-2CBMF-Trp-Gln-NH2
notes: Stapled peptide composition
B3: I-108 (peptide)
peptide: Ac-FDA[R8]DDAA[Phe(3-CONH2)]V[PyrS″]FWQ-NH2
modifications: staple 4-11; not fully specified; printed as Ac-Phe-Asp-Ala-R8-Asp-Asp-Ala-Ala-3CBMF-Val-PyrS-Phe-Trp-Gln-NH2
notes: Stapled peptide composition
B4: I-111 (peptide)
peptide: Ac-FDA[R8]DDAAFV[PyrS″][Phe(4-COOH)]WQ-NH2
modifications: staple 4-11
notes: Stapled peptide composition; same description as I-110, separate later-eluting HPLC peak (staple isomer)
B5: I-128 (peptide)
peptide: Ac-[αAllylPro]DA[B5(10)]DEAAFV[S8]FW-NH2
modifications: staple 1-4, 4-11
notes: Stitched (two-staple) peptide composition
B6: I-124 (peptide)
peptide: XDAXDNAAFVXFWQ
modifications: not fully specified; as printed: Ac-PL3-Asp-Ala-B5-Asp-Asn-Ala-Ala-Phe-Val-S8-Phe-Trp-Gln-NH2; staples PL3(1)-B5(4) and B5(4)-S8(11)
notes: as for B5
B7: I-126 (peptide)
peptide: Ac-[αAllylPro]DA[B5(33)]DQAAFV[S8]FWQ-NH2
modifications: staple 1-4, 4-11
notes: as for B5
B8: I-110 (peptide)
peptide: Ac-FDA[R8]DDAAFV[PyrS″][Phe(4-COOH)]WQ-NH2
modifications: staple 4-11; not fully specified; printed as Ac-Phe-Asp-Ala-R8-Asp-Asp-Ala-Ala-Phe-Val-PyrS-4COOHF-Trp-Gln-NH2
notes: Stapled peptide composition
B9: I-106 (peptide)
peptide: Ac-FDA[R8]DDAAFV[PyrS][Phe(2-CONH2)]WQ-NH2
modifications: staple 4-11; not fully specified; printed as Ac-Phe-Asp-Ala-R8-Asp-Asp-Ala-Ala-Phe-Val-PyrS-2CBMF-Trp-Gln-NH2
notes: Stapled peptide composition
B10: I-119 (peptide)
peptide: Ac-FDA[R8]DDAA[hTyr]V[PyrS(3)]FWQ-NH2
modifications: staple 4-11
notes: Stapled peptide composition; same description as I-120, separate earlier-eluting HPLC peak (staple isomer)
B11: I-104 (peptide)
peptide: Ac-FDA[R8]DDAA[Phe(3-OMe)]V[PyrS″]FWQ-NH2
modifications: staple 4-11; not fully specified; printed as Ac-Phe-Asp-Ala-R8-Asp-Asp-Ala-Ala-3OMeF-Val-PyrS-Phe-Trp-Gln-NH2
notes: Stapled peptide composition
B12: I-130 (peptide)
peptide: Ac-[αAllylPro]DA[B5(4)]DEAAFV[SeN]FWQ-NH2
modifications: staple 1-4, 4-11
notes: as for B5
B13: I-215 (peptide)
peptide: Ac-[αAllylPro]DA[B5]D[d(αMeL)]AAFV[S8]FWQ-NH2
modifications: staple 1-4, 4-11
notes: Stapled peptide composition; also called Ac-PL3-Asp-Ala-B5-Asp-DaMeL-Ala-Ala-Phe-Val-S8-Phe-Trp-Gln-NH2
B14: I-236 (peptide)
peptide: Ac-[αAllylPro]DA[B5(3)]DDAA[Phe(3-CF3)]V[S8]FWQ-NH2
modifications: staple 1-4, 4-11
notes: Stapled peptide composition; also called Ac-PL3-Asp-Ala-B5-Asp-Asp-Ala-Ala-3F3MeF-Val-S8-Phe-Trp-Gln-NH2
B15: I-244 (peptide)
peptide: Ac-[αAllylPro]DA[B5(5)]D[Phe(3-CF3)]AAFV[S8]FWQ-NH2
modifications: staple 1-4, 4-11
notes: Stapled peptide composition; also called Ac-PL3-Asp-Ala-B5-Asp-3F3MeF-Ala-Ala-Phe-Val-S8-Phe-Trp-Gln-NH2
B16: I-247 (peptide)
peptide: Ac-[αAllylPro]DA[B5(4)]D[Phe(4-CF3)]AAFV[S8]FWQ-NH2
modifications: staple 1-4, 4-11
notes: Stapled peptide composition; also called Ac-PL3-Asp-Ala-B5-Asp-4F3MeF-Ala-Ala-Phe-Val-S8-Phe-Trp-Gln-NH2
B17: I-245 (peptide)
peptide: Ac-[αAllylPro]DA[B5(4)]D[Phe(3-CF3)]AAFV[S8]FWQ-NH2
modifications: staple 1-4, 4-11
notes: as for B15
B18: I-246 (peptide)
peptide: Ac-[αAllylPro]DA[B5(4)]D[Phe(4-CF3)]AAFV[S8]FWQ-NH2
modifications: staple 1-4, 4-11
notes: as for B16
B19: I-233 (peptide)
peptide: Ac-[αAllylPro]DA[B5(3)]DWAAFV[S8]FWQ-NH2
modifications: staple 1-4, 4-11
notes: Stapled peptide composition; also called Ac-PL3-Asp-Ala-B5-Asp-Trp-Ala-Ala-Phe-Val-S8-Phe-Trp-Gln-NH2
B20: I-216 (peptide)
peptide: Ac-[αAllylPro]DA[B5(4)]D[d(αMeL)]AAFV[S8]FWQ-NH2
modifications: staple 1-4, 4-11
notes: as for B13
B21: I-214 (peptide)
peptide: Ac-[αAllylPro]DA[B5][4Pal]EAAFV[S8]FWQ-NH2
modifications: staple 1-4, 4-11
notes: Stapled (stitched) peptide composition; also called Ac-PL3-Asp-Ala-B5-4pyrA-Glu-Ala-Ala-Phe-Val-S8-Phe-Trp-Gln-NH2
B22: I-221 (peptide)
peptide: Ac-FDA[R8]DDAAFT[PyrS]FWQ-NH2
modifications: staple 4-11
notes: Stapled peptide composition; also called Ac-Phe-Asp-Ala-R8-Asp-Asp-Ala-Ala-Phe-Thr-PyrS-Phe-Trp-Gln-NH2
B23: I-227 (peptide)
peptide: Ac-FDA[R8]DDAAFV[PyrS″][Phe(F5)]WQ-NH2
modifications: staple 4-11
notes: Stapled peptide composition; also called Ac-Phe-Asp-Ala-R8-Asp-Asp-Ala-Ala-Phe-Val-PyrS-Pff-Trp-Gln-NH2
B24: I-226 (peptide)
peptide: Ac-FDA[R8]DDAAFV[PyrS″][Phe(F5)]WQ-NH2
modifications: staple 4-11
notes: as for B23
B25: I-228 (peptide)
peptide: Ac-FDA[R8]DDAAFV[PyrS][Phe(F5)]WQ-NH2
modifications: staple 4-11
notes: as for B23
B26: I-225 (peptide)
peptide: Ac-FDA[R8]DDAAFV[PyrS][Phe(F5)]WQ-NH2
modifications: staple 4-11
notes: as for B23

Target: T1, full-length beta-Catenin (Uniprot ID P35222) (Homo sapiens (Human), UniProt P35222 2-781)
T1 construct: also called B-Catenin; bCat
T1 sequence: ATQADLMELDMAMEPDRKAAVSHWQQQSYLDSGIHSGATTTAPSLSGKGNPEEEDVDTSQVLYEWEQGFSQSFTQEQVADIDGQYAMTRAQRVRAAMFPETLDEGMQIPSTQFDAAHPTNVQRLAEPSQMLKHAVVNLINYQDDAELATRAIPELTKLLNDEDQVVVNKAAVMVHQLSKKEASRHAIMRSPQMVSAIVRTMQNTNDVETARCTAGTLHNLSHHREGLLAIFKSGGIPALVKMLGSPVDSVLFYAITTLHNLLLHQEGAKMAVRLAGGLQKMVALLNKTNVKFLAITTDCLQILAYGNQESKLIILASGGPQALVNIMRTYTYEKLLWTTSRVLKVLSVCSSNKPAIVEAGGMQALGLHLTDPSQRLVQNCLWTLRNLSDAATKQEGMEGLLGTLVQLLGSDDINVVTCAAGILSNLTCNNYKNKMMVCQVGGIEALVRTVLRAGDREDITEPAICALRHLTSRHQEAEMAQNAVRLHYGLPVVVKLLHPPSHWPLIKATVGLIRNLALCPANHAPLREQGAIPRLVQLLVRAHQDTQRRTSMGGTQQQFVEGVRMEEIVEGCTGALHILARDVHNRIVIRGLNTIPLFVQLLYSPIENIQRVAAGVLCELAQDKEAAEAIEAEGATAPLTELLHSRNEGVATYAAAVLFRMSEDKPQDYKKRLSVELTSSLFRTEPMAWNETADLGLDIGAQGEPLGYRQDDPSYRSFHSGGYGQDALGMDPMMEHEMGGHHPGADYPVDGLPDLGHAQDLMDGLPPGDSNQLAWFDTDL
Assay: Alphascreen competition; biotin-TCF4(10-53) probe with full-length beta-catenin
Experimental: (§1) Equal volume of the titrated peptide was added to the plate and incubated for 15 minutes at 20° C. Then 4 uL of donor and 4 uL acceptor beads at 10 ug/mL were added to the plate, for a 16 uL reaction pool and protected from light for 60 minutes at 20° C. prior to read. Reads were performed on a CLARIOstar plate reader (BMG Labtech) in duplicate, and data were fitted to a 1:1 binding model with hill slope using an in-house script. All provided concentrations are final concentrations.

| Binder | EC50 |
| --- | --- |
| B1 | 8.82 µM |
| B2 | ≥ 10 µM |
| B3 | ≥ 10 µM |
| Ac-FDA[R8]D[2Nal]AAFV[PyrS″]FWQ-NH2 (staple 4-11; also: earlier-eluting HPLC peak (staple isomer), Stapled peptide composition) [I-115] | 4.78 µM |
| B4 | 7.64 µM |
| Ac-FDA[R8]D[2Nal]AAFV[PyrS″]FWQ-NH2 (staple 4-11; also: later-eluting HPLC peak (staple isomer), Stapled peptide composition) [I-116] | 3.64 µM |
| Ac-FDA[R8]DDAA[hTyr]V[PyrS(3)]FWQ-NH2 (staple 4-11, Stapled peptide composition) [I-120] | 4.55 µM |
| Ac-FDA[R8]DDAA[2Nal]V[PyrS″]FWQ-NH2 (staple 4-11, Stapled peptide composition) [I-113] | 6.2 µM |
| Ac-FDA[R8]DDAA[2Nal]V[PyrS″]FWQ-NH2 (staple 4-11, Stapled peptide composition) [I-112] | ≥ 10 µM |
| B5 | 0.907 µM |
| B6 | 1.28 µM |
| B7 | 1.48 µM |
| Ac-FDA[R8]DDAAFV[PyrS″][Phe(3-CONH2)]WQ-NH2 (staple 4-11, Stapled peptide composition) [I-107] | ≥ 10 µM |
| B8 | 8.5 µM |
| Ac-FDA[R8]DDAA[hPhe]V[PyrS″]FWQ-NH2 (staple 4-11; also: earlier-eluting HPLC peak (staple isomer), Stapled peptide composition) [I-117] | ≥ 10 µM |
| B9 | ≥ 10 µM |
| B10 | 4.94 µM |
| Ac-FDA[R8]D[1Nal]AAFV[PyrS″]FWQ-NH2 (staple 4-11, Stapled peptide composition) [I-114] | 4.74 µM |
| B11 | 6.17 µM |
| Ac-FDA[R8]DDAA[hPhe]V[PyrS(3)]FWQ-NH2 (staple 4-11, Stapled peptide composition) [I-118] | 4.36 µM |
| B12 | 0.797 µM |

Target: T2, full-length beta-Catenin (Uniprot ID P35222) (Homo sapiens (Human), UniProt P35222 2-781)
T2 construct: The AlphaScreen assay used a Histidine (Nickel Chelate) detection kit, so a His tag is likely, but no tag is described; also called B-Catenin; bCat
T2 sequence: T1 sequence
Assay: AlphaScreen competition: full-length beta-catenin + biotin-TCF4(10-53) probe, peptide titrated
Experimental: as §1

| Binder | EC50 |
| --- | --- |
| B13 | ≥ 10 µM |
| B14 | 0.384 µM |
| B15 | 2.96 µM |
| B16 | 3.97 µM |
| B17 | 2.96 µM |
| B18 | 3.97 µM |
| B19 | 5.9 µM |
| B20 | ≥ 10 µM |
| B21 | 7.21 µM |
| B22 | 6.58 µM |
| B23 | 5.91 µM |
| B24 | 7.63 µM |
| B25 | 5.91 µM |
| B26 | 7.63 µM |
